Assay results from paper PMC3863792.

T1: bio-d-mC5a (mirror-image mouse C5a) (mouse, UniProt P06684)
T1 sequence: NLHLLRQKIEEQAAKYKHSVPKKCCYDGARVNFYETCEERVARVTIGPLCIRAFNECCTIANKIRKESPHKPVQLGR


Target: T1, bio-d-mC5a (mirror-image mouse C5a)
Test: competition

Binder	binding result
GCCUGAUGUGGUGUUGAAGGGUUGUUGGGUGUCGACGCACAGGC (structured_RNA) [274-C8-002]	binds
GCCUGAUGUGGUGGUGAAGGGUUGUUGGGUGUCGACGCACAGGC (structured_RNA) [274-C8-002-G14]	binds
